Reverse-splicing fitness data for 83 variants are collected here from the RNAGym collection of RNA variant scans (doi:10.1093/molbev/msab373).

The chains are these.
B1: Azoarcus group I ribozyme (parent)
chain: GUGCCUUGCGCCGGGAAACCACGCAAGGGAUGGUGUCAAAUUCGGCGAAACCUAAGCGCCCGCCCGGGCGUAUGGCAACGCCGAGCCAAGCUUCGGCGCCUGCGCCGAUGAAGGUGUAGAGACUAGACGGCACCCACCUAAGGCAAACGCUAUGGUGAAGGCAUAGUCCAGGGAGUGGCGAAAGUCACACAAACCGG

The variants in this data set derive from B1. In words: reverse-splicing fitness (ratio to wild type); higher = more active; in vitro selection; Mg2+ level not given. The method in brief:
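An in vitro group I ribozyme library with randomized positions was T7-transcribed and gel-purified. In triplicate, 10 pmol RNA in EPPS pH 7.5 was reacted with 50 pmoles of a 30-nt RNA substrate for 1 h at 37 °C across several added MgCl2 levels (1–48 mM), then stopped with EDTA. Products were reverse transcribed from a substrate-complementary primer, PCR-amplified and sequenced (HiSeq 4000). Fitness is a variant's read proportion after selection over that before, normalised to wild type.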
For C82U A111C A120U A145G C150G C169U U176G, the reverse-splicing fitness turned out to be 0.00411.
In the case of C82U A111C A120U A145G C150G C169U U176C, the reverse-splicing fitness was determined as 0.00661.
With C82U A111C A120G C169G U176C, the reverse-splicing fitness stood at 0.0209.
As for C82U A111C A120G C169G U176A, the reverse-splicing fitness turned out to be 0.0161.
As for C82U A111C A120G C169G U176G, the figure is 0.00413; as for C82U A111C A120G C150G U176C, 0.013; as for C82U A111C A120G C150G U176G, 0.00294.
With C82U A111C A120G C150G U176A, the reverse-splicing fitness is 0.00789.
The figure for C82U A111C A120U A145C C150U C169A U176A is 0.00213.
As for C82U A111C A120U A145C C150U C169A U176C, the figure is 0.0025.
On to C82U A111C A120U A145C C150U C169A U176G, for which the reverse-splicing fitness amounted to 0.00235.
Regarding C82U A111C A120G C150U U176A, the reverse-splicing fitness is 0.0106.
As for C82U A111C A120G C150U U176C, the figure is 0.0194.
As for C82U A111C A120G C150U U176G, the figure is 0.00514; as for C82U A111C A120U A145U C150A C169G U176C, 0.003; as for C82U A111C A120U A145U C150A C169G U176A, 0.00239.
Take C82U A111C A120U A145U C150A C169G U176G: the reverse-splicing fitness is 0.00205.
C82U A111C A120U A145C C150U U176C: the reverse-splicing fitness amounted to 0.00591.
The figure for C82U A111C A120U A145C C150U U176A is 0.00424; for C82U A111C A120U A145C C150U U176G it is 0.0029; for C82U A111C A120U A145C it is 0.0226.
The figure for C82U A111C A120U A145G is 0.0248; for C82U A111C A120U A145U it is 0.0254; for C82U A111C A120U A145G C169G U176A it is 0.00323.
The figure for C82U A111C A120U A145G C169G U176C is 0.00344; for C82U A111C A120U A145G C169G U176G it is 0.0017.
For C82U A111C A120U A145U U176G, the reverse-splicing fitness came out at 0.00361.
As for C82U A111C A120U A145U U176A, the reverse-splicing fitness is 0.00693.
As for C82U A111C A120U A145U U176C, the figure is 0.0113.
With C82U A111C A145C C150A C169A, the reverse-splicing fitness was 0.00786.
As for C82U A111C A145C C150A C169U, the figure is 0.00887; as for C82U A111C A145C C150A C169G, 0.00773; as for C82U A111C A120U A145U C150G C169U U176G, 0.0025.
In the case of C82U A111C A120U A145U C150G C169U U176A, the reverse-splicing fitness was found to be 0.00227.
As for C82U A111C A120U A145U C150G C169U U176C, the figure is 0.00264; as for C82U A111C A120G U176C, 0.02; as for C82U A111C A120G U176G, 0.00514.
Turning to C82U A111C A120G U176A, the reverse-splicing fitness was 0.0155.
The figure for C82U A111C A120U C169U U176A is 0.0057; for C82U A111C A120U C169U U176C it is 0.00419; for C82U A111C A120U C169U U176G it is 0.00178.
The figure for C82U A111C A120U C150U U176G is 0.00332; for C82U A111C A120U C150U U176A it is 0.00642; for C82U A111C A120U C150U U176C it is 0.00907.
For the variant C82U A111C A120U A145G C150G, the reverse-splicing fitness came to 0.00805.
In the case of C82U A111C A120U A145G C150U, the reverse-splicing fitness turned out to be 0.0233.
As for C82U A111C A120U A145G C150A, the figure is 0.00865.
As for C82U A111C A120G C169U U176C, the figure is 0.0142; as for C82U A111C A120G C169U U176A, 0.0158.
As for C82U A111C A120G C169U U176G, the figure is 0.00376; as for C82U A111C A120U A145C U176G, 0.00296; as for C82U A111C A120U A145C U176C, 0.00705.
In the case of C82U A111C A120U A145C U176A, the reverse-splicing fitness turned out to be 0.00655.
On to C82U A111C A120U A145C C150A, for which the reverse-splicing fitness was 0.00398.
The figure for C82U A111C A120U A145C C150G is 0.00528.
As for C82U A111C A120U A145C C150U, the figure is 0.00868.
Regarding C82U A111C A120U A145C C150G C169G, the reverse-splicing fitness was found to be 0.00351.
The figure for C82U A111C A120U A145C C150G C169A is 0.00271; for C82U A111C A120U A145C C150G C169U it is 0.00396.
The figure for C82U A111C A120G C150G C169A is 0.00813.
With C82U A111C A120G C150G C169U, the reverse-splicing fitness was 0.00766.
The figure for C82U A111C A120G C150G C169G is 0.00667; for C82U A111C A120G C150U C169A U176G it is 0.00479.
As for C82U A111C A120G C150U C169A U176C, the figure is 0.0113.
The figure for C82U A111C A120G C150U C169A U176A is 0.0142.
For C82U A111C A120U A145C C169G U176C, the reverse-splicing fitness is 0.00215.
Take C82U A111C A120U A145C C169G U176A: the reverse-splicing fitness turned out to be 0.00206.
With C82U A111C A120U A145C C169G U176G, the reverse-splicing fitness worked out at 0.00186.
The figure for C82U A111C A145C C150A C169A U176C is 0.00874; for C82U A111C A145C C150A C169A U176G it is 0.00794; for C82U A111C A145C C150A C169A U176A it is 0.0134.
Consider C82U A111C A120U A145G C150U C169G U176C, for which the reverse-splicing fitness stood at 0.00346.
On to C82U A111C A120U A145G C150U C169G U176A, for which the reverse-splicing fitness was 0.00475.
Consider C82U A111C A120U A145G C150U C169G U176G, for which the reverse-splicing fitness was found to be 0.0025.
Take C82U A111C A120U A145G C150U U176A: the reverse-splicing fitness came to 0.00854.
As for C82U A111C A120U A145G C150U U176G, the figure is 0.00287; as for C82U A111C A120U A145G C150U U176C, 0.0107; as for C82U A111C A120U A145C C150G C169A U176C, 0.00245.
As for C82U A111C A120U A145C C150G C169A U176G, the figure is 0.0024; as for C82U A111C A120U A145C C150G C169A U176A, 0.00289.
The figure for C82U A111C A120U C150U C169U U176C is 0.00387.
Turning to C82U A111C A120U C150U C169U U176A, the reverse-splicing fitness came to 0.00612.
On to C82U A111C A120U C150U C169U U176G, for which the reverse-splicing fitness turned out to be 0.00197.
